Reference: article PMC3090473 (Methods (San Diego, Calif.), 2010)

Target: the molecule itself
Assay: AUC

B1: Un-tagged Gal3 protein (natural protein, Saccharomyces cerevisiae, UniProt P13045 1-520, looked up)
chain: MNTNVPIFSSPVRDLPRSFEQKHLAVVDAFFQTYHVKPDFIARSPGRVNLIGEHIDYCDFSVLPLAIDVDMLCAVKILDEKNPSITLTNADPKFAQRKFDLPLDGSYMAIDPSVSEWSNYFKCGLHVAHSYLKKIAPERFNNTPLVGAQIFCQSDIPTGGGLSSAFTCAAALATIRANMGKNFDISKKDLTRITAVAEHYVGVNNGGMDQATSVYGEEDHALYVEFRPKLKATPFKFPQLKNHEISFVIANTLVKSNKFETAPTNYNLRVIEVTVAANALATRYSVALPSHKDNSNSERGNLRDFMDAYYARYENQAQPWNGDIGTGIERLLKMLQLVEESFSRKKSGFTVHEASTALNCSREEFTRDYLTTFPVRFQVLKLYQRAKHVYSESLRVLKALKMMTSATFHTDEDFFTDFGRLMNESQASCDKLYECSCIETNQICSIALANGSFGSRLTGAGWGGCTIHLVPSGANGNVEQVRKALIEKFYNVRYPDLTDEELKDAIIVSKPALGTCLYEQ
binding result: binds

B2: Un-tagged Gal80 protein (natural protein, Saccharomyces cerevisiae, UniProt P04387 1-435, looked up)
chain: MDYNKRSSVSTVPNAAPIRVGFVGLNAAKGWAIKTHYPAILQLSSQFQITALYSPKIETSIATIQRLKLSNATAFPTLESFASSSTIDMIVIAIQVASHYEVVMPLLEFSKNNPNLKYLFVEWALACSLDQAESIYKAAAERGVQTIISLQGRKSPYILRAKELISQGYIGDINSIEIAGNGGWYGYERPVKSPKYIYEIGNGVDLVTTTFGHTIDILQYMTSSYFSRINAMVFNNIPEQELIDERGNRLGQRVPKTVPDHLLFQGTLLNGNVPVSCSFKGGKPTKKFTKNLVIDIHGTKGDLKLEGDAGFAEISNLVLYYSGTRANDFPLANGQQAPLDPGYDAGKEIMEVYHLRNYNAIVGNIHRLYQSISDFHFNTKKIPELPSQFVMQGFDFEGFPTLMDALILHRLIESVYKSNMMGSTLNVSNISHYSL
binding result: binds
